Laboratory results reported in the supplement of paper PMC10126150.
± gives the standard deviation of the averaged measurements.
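Note: ATP exposure 15 min at 22 °C before imaging.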

These sequences were tested on ATP (assay: switch fluorescence ratio, 500 uM ATP over buffer (Cy3 cluster intensity, sum of 5 cycles each) (fold (ratio)); higher = stronger signal-on switching upon ATP binding; sequences stand for … in TCGTCGGCAGCGTCAGATGTGTATAAGAGACAGTTTTTTTTTTTTTTTTTTTTTTTTT…TC). Details: aptamer strand: ATP DNA aptamer (quencher-CACCTGGGGGAGTATTGCGGAGGAAGG + anchor), 100 nM annealed; ATP concentration: 500 uM.
In short: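 Between each of five buffer/ATP cycles, the flow-cell was stripped with NaOH and re-annealed. Each cycle imaged Cy3-labelled switching-strand clusters, annealed to 100 nM quencher-labelled ATP aptamer on a modified Illumina MiSeq flow-cell, first in selection buffer and then after 15 min with 500 uM ATP at 22 °C. The fluorescence ratio is summed target-cycle over summed buffer-cycle Cy3 intensity per cluster, averaged per switch-domain sequence, with clusters outside 100-1000 RFU excluded.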
AAACCTGGCT showed a switch fluorescence ratio of 1.41 ± 0.034.
In the case of AAACCTGGGT, the switch fluorescence ratio is reported as 1.03 ± 0.025.
Sequence AAACGAAATT has a switch fluorescence ratio of 1.03 ± 0.068.
In the case of AAACGAAGGA, the switch fluorescence ratio is reported as 1.09 ± 0.069.
AAACGCGTTG was tested, and the switch fluorescence ratio was 0.9955 ± 0.0011.
For AAACGGCGGC, the switch fluorescence ratio was 1.05 ± 0.041.
Work on AAACGGGGAC yielded a switch fluorescence ratio of 1.07 ± 0.15.
Sequence AAACGGGTGC has a switch fluorescence ratio of 1.27 ± 0.29.
Work on AAACGGTATT yielded a switch fluorescence ratio of 1.09 ± 0.083.
AAACGGTTTC was tested, and the switch fluorescence ratio was 0.993 ± 0.036.
With AAACGTTAGC the switch fluorescence ratio was 1.03 ± 0.052.
Sequence AAACTAAGAA has a switch fluorescence ratio of 1 ± 0.016.
For AAACTCGGAC, the switch fluorescence ratio was 1.143 ± 0.0053.
AAACTCTGCG gave a switch fluorescence ratio of 1.05 ± 0.026.
AAACTGAATA was tested, and the switch fluorescence ratio was 1.03 ± 0.016.
For AAACTGATGC, the switch fluorescence ratio was 1.03 ± 0.052.
AAACTGCTCC gave a switch fluorescence ratio of 1.517 ± 0.012.
Sequence AAACTGTAAA has a switch fluorescence ratio of 1.08 ± 0.045.
With AAACTGTATT the switch fluorescence ratio was 1.08 ± 0.019.
Work on AAACTTAATA yielded a switch fluorescence ratio of 1.14 ± 0.16.
In the case of AAACTTGCCC, the switch fluorescence ratio is reported as 1.09 ± 0.012.
In the case of AAAGAAAAGG, the switch fluorescence ratio is reported as 0.989 ± 0.0065.
In the case of AAAGAAGGTA, the switch fluorescence ratio is reported as 1 ± 0.026.
Work on AAAGAATAAA yielded a switch fluorescence ratio of 1.022 ± 0.0089.
AAAGACCGTG was tested, and the switch fluorescence ratio was 1.02 ± 0.033.
AAAGACGCGC gave a switch fluorescence ratio of 0.998 ± 0.038.
In the case of AAAGAGGGTA, the switch fluorescence ratio is reported as 0.963 ± 0.055.
With AAAGAGGGTT the switch fluorescence ratio was 1.02 ± 0.019.
With AAAGATGAAT the switch fluorescence ratio was 1.04 ± 0.011.
AAAGATGGGA was tested, and the switch fluorescence ratio was 1.003 ± 0.0081.
For AAAGATGTCA, the switch fluorescence ratio was 1.005 ± 0.0029.
In the case of AAAGATTATT, the switch fluorescence ratio is reported as 1 ± 0.021.
AAAGATTTCG was tested, and the switch fluorescence ratio was 0.971 ± 0.027.
In the case of AAAGCCACGC, the switch fluorescence ratio is reported as 1.11 ± 0.032.
For AAAGCGCGCT, the switch fluorescence ratio was 1 ± 0.07.
AAAGCGGGGC was tested, and the switch fluorescence ratio was 1.02 ± 0.015.
Work on AAAGCTCTGT yielded a switch fluorescence ratio of 0.992 ± 0.012.
AAAGCTGGAG was tested, and the switch fluorescence ratio was 1.03 ± 0.021.
AAAGGAAGAA showed a switch fluorescence ratio of 1.013 ± 0.0073.
AAAGGACGTG showed a switch fluorescence ratio of 0.9356 ± 0.0076.
In the case of AAAGGAGGAG, the switch fluorescence ratio is reported as 0.991 ± 0.038.
Sequence AAAGGCACCC has a switch fluorescence ratio of 1.05 ± 0.019.
In the case of AAAGGCCATG, the switch fluorescence ratio is reported as 1.02 ± 0.0045.
AAAGGCCCGA gave a switch fluorescence ratio of 1.0084 ± 0.00039.
For AAAGGCCGT, the switch fluorescence ratio was 1.016 ± 0.0077.
With AAAGGCCTTA the switch fluorescence ratio was 1.01 ± 0.045.
AAAGGCGTAA was tested, and the switch fluorescence ratio was 0.997 ± 0.013.
AAAGGGAGGT was tested, and the switch fluorescence ratio was 1.03 ± 0.041.
In the case of AAAGGGCTGC, the switch fluorescence ratio is reported as 1.02 ± 0.13.
AAAGGGGACA gave a switch fluorescence ratio of 1.02 ± 0.054.
Work on AAAGGGGCGG yielded a switch fluorescence ratio of 1.02 ± 0.022.
In the case of AAAGGGGGAC, the switch fluorescence ratio is reported as 1.04 ± 0.089.
For AAAGGGGGC, the switch fluorescence ratio was 0.974 ± 0.067.
AAAGGGGGCG was tested, and the switch fluorescence ratio was 0.99 ± 0.017.
Sequence AAAGGGGGTA has a switch fluorescence ratio of 0.986 ± 0.015.
In the case of AAAGGGGTGA, the switch fluorescence ratio is reported as 0.9698 ± 0.0057.
AAAGGGTTCG showed a switch fluorescence ratio of 1 ± 0.034.
With AAAGGGTTTC the switch fluorescence ratio was 1 ± 0.038.
With AAAGGTAAGG the switch fluorescence ratio was 0.965 ± 0.016.
AAAGGTCTGA was tested, and the switch fluorescence ratio was 0.98 ± 0.0099.
With AAAGGTTCTG the switch fluorescence ratio was 0.992 ± 0.072.
Work on AAAGTAAAGT yielded a switch fluorescence ratio of 1.01 ± 0.028.
For AAAGTACGGT, the switch fluorescence ratio was 1.21 ± 0.024.
AAAGTAGGAG showed a switch fluorescence ratio of 0.98 ± 0.048.
In the case of AAAGTAGTTA, the switch fluorescence ratio is reported as 0.991 ± 0.015.
For AAAGTATCAG, the switch fluorescence ratio was 1.002 ± 0.0081.
With AAAGTCTAC the switch fluorescence ratio was 1 ± 0.017.
With AAAGTGATTG the switch fluorescence ratio was 0.9723 ± 0.0028.
AAAGTGGGAG gave a switch fluorescence ratio of 0.971 ± 0.012.
Sequence AAAGTGGGG has a switch fluorescence ratio of 0.973 ± 0.016.
For AAAGTGGGGA, the switch fluorescence ratio was 1.03 ± 0.038.
Work on AAAGTTAATG yielded a switch fluorescence ratio of 1.009 ± 0.0074.
With AAAGTTACTG the switch fluorescence ratio was 1.03 ± 0.077.
In the case of AAAGTTCCTA, the switch fluorescence ratio is reported as 0.968 ± 0.033.
AAAGTTGGCT was tested, and the switch fluorescence ratio was 1.02 ± 0.046.
AAAGTTTCCG showed a switch fluorescence ratio of 1 ± 0.0018.
With AAATAATTGC the switch fluorescence ratio was 1.01 ± 0.038.
